Reference: patent US20250136720A1 (Boehringer Ingelheim, published 2025)
Numbering of substitutions follows the chain as printed. One block for each binder: values may come before it.

Experiments:
[1] = target: T1, Murine Fibroblast Activation Protein (FAP) on B16 cells (mouse, UniProt P97321 1-761); experiment: flow cytometry, scFv-Fc on B16-FAP cells
T1 construct: B16 cells transduced with murine FAP cDNA; also called B16-FAP

[2] = target: T2, Human Fibroblast Activation Protein (FAP) on HT1080 cells (human, UniProt Q12884 1-760); experiment: flow cytometry, scFv-Fc on HT1080-FAP cells
T2 construct: HT1080 cells transduced with human FAP cDNA; also called HT1080-FAP; FAP+ HT1080

human FAP protein = human FAP protein (human, UniProt Q12884 26-760, limits assumed); experiment: method not stated
mouse FAP protein = target: T3, mouse FAP protein (mouse, UniProt P97321 1-761); experiment: method not stated
T3 construct: also called murine FAP
T3 sequence (P97321 other isoform, or with tags, fused parts or gaps limits assumed, form in doubt): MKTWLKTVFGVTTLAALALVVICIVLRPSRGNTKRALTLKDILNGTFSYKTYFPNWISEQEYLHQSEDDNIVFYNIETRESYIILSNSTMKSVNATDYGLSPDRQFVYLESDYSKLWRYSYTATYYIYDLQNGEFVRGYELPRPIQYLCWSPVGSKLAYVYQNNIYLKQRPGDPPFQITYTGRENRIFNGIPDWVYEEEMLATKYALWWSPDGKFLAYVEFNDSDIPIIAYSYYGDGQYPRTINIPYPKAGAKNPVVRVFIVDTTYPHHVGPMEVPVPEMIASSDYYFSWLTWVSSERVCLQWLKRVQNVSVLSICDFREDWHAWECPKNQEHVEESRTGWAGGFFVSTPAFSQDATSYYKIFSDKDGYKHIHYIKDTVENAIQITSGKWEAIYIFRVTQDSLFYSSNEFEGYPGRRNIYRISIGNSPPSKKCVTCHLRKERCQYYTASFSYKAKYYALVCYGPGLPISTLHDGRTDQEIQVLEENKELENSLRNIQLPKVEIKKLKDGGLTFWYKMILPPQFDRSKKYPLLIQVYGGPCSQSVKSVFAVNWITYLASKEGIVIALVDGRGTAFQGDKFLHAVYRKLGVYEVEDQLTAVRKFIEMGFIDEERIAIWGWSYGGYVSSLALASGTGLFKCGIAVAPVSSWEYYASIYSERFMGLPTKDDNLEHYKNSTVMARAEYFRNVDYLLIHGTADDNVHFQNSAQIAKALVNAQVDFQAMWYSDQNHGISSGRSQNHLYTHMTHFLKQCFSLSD

T1 sequence (P97321 other isoform, or with tags, fused parts or gaps): as the sequence (P97321 other isoform, or with tags, fused parts or gaps limits assumed, form in doubt) above

MFI [1]: 1610 MFI
MFI [2]: 24000 MFI
B1: FAP.84.B7 (Fc fusion)
VH: DVQLVESGGGVVRPGESLRLSCAASGFIFRNYAMTWVRQAPGEGLEWVSTIRSSGSGRTDTYYADSVKGRFTISRDSSNNTLYLQMNSLRAEDTAVYYCAKSGTFWDTFFDYWGLGTLVTVSS
VL: EIVLTQNPGTLNLSPGERATLTCRASQSAGRNLAWYQQKPGQTPRLLIYDVNTRATGIPDRFSGSGSGTEFNLTISSLQNEDFAVYYCQQYNNWPPLTFGGGTKVEIK
notes: Tested as scFv-Fc; orientation, linker and Fc of this construct not specified

Kd (human FAP protein): 1040 pM
Kd (mouse FAP protein): < 20 pM
B2: FAP-A11 parental (scFv)
scFv: EIVLTQSPGTLSLSPGERATLSCRASQPINNYLAWYQQKPGQAPRLLIFSASNRATGIPDRFSGSGSGTEFTLTISSLEPEDFAVYYCQQYYDWPPYTFGGGTKVEIKGGGGSGGGGSGGGGSGGGGSDVQLVESGGGLVQPGGSLRLSCAASGFSMSNFAMTWVRQAPGEGLEWVSGIRGSGTTYYADSVKGRFTVSRDNSKNTLYLQMNSLRAEDTAIYYCAKTWGTEYFDYWGLGTLVTVSS
notes: the format in the KD assay is told only as 'SCFV'; also called FAP-A11SCFV(WT); FAP #1

Kd (human FAP protein): 1500 pM
Kd (mouse FAP protein): < 20 pM
B3: FAP-A11 VK7-VH1 (FAP #3) (scFv)
scFv: B2 scFv with N30S, N31S, D189E
notes: format in the KD assay not described; also called FAP-A11VK7VH1 (SS, NNN)

Kd (human FAP protein): 199 pM
Kd (mouse FAP protein): < 20 pM
B4: FAP-A11 VK3-VH1 (scFv)
scFv: B2 scFv with N30R, N31S, D189E
notes: also called FAP-A11VK3VH1 (RS, NNN)

Kd (human FAP protein): 538 pM
Kd (mouse FAP protein): < 20 pM
B5: FAP-A11 VK3-VH13 (FAP #2) (scFv)
scFv: B2 scFv with N30R, N31S, D189E, N201Q, N204Q, N211Q
notes: format in the KD assay not described; also called FAP-A11VK3VH13 (RS, QQQ); A11 VK3/VH3

MFI [1]: 1430 MFI
MFI [2]: 27000 MFI
B6: FAP.84.C11 (Fc fusion)
VH: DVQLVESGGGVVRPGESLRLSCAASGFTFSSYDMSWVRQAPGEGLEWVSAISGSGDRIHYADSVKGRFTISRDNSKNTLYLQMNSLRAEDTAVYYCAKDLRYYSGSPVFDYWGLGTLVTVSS
VL: EIVLTQSPGTLSLSPGERAILSCRASQTVGSRLAWYQQKPGQAPRLLIYAASSRATGIPDRFSGSGSGTEFTLTISSLQSEDFAVYYCQQYYDWPPLTFGGGTKVEIK
notes: as for B1

MFI [1]: 1490 MFI
MFI [2]: 24300 MFI
B7: FAP.84.B8 (Fc fusion)
VH: DVQLVESGGSVVRPGESLRLSCAASGFPFSSYPMTWVRQAPGEGLEWVSSIRGSGDRIHYADSVKGRFTISKDSSNNTLYLQMNSLRAEDTAVYYCATGWNFFDYWGLGTLVTVSS
VL: EIVLTQSPGTLSLSPGERATLSCRASQTVATYLAWYQQKPGQAPRLLIYAAISRATGIPDRFSGSGSGTDFTLTITRLEPEDSAVYYCQQYKDWPPLTFGGGTKVEIK
notes: as for B1

MFI [1]: 1300 MFI
MFI [2]: 25400 MFI
B8: FAP.84.A9 (Fc fusion)
VH: B7 VH with S10G, E16G, G53P, S54I, K72R
VL: B7 VL with S22T, S63I, T76N, S83F
notes: as for B1

Kd (human FAP protein): 36 pM
Kd (mouse FAP protein): 33000 pM
B9: FAP-C3 parental (scFv)
scFv: EIVLTQSPGTLSLSPGERATLSCRASQSVGHYLAWYQQKPGQAPRLLIYDASNRAIDIPDRFSGSGSGTEFTLTISRLEPEDFAVYYCQQYYNNWPPLTFGGGTKVEIKGGGGSGGGGSGGGGSGGGGSDVQLVESGGGVVRPGESLTLSCAASGFTFSNYDMGWVRQAPGEGLEWVSGIRGRGGSTYYADSVKGRFTISRDSSKNTLYLQMNSLRAEDTAVYYCAKENNRHSFFEYWGLGTLVTVSS
notes: the format in the KD assay is told only as 'SCFV'; also called FAP-C3SCFVWT; FAP #4

Kd (human FAP protein): 24 pM
Kd (mouse FAP protein): 4600 pM
B10: FAP-C3 VK1-VH14 (FAP #5) (scFv)
scFv: B9 scFv with N94D, N160S, D191E, D202E, N230E
notes: format in the KD assay not described; also called FAP-C3VK1VH14 (ND, SY, ES, ES, ER); FAP-C3-VK1-VH4

MFI [1]: 2260 MFI
MFI [2]: 17300 MFI
B11: FAP.84.B2 (Fc fusion)
VH: DVQLVESGGGVVRPGESLRLSCAASGFSFSSYAMNWVRQAPGKGLEWVSAISGSGGGTFYADSVKGRFTISRDNSKNTLYLQMNSLRAEDTAIYYCAKDPFGYGFFDSWGLGTLVTVSS
VL: EIVMTQSPATLSVSPGDRATLSCRASQTVGSKLAWYQQKPGQAPRLLIYAASSRATGIPDRFSGSGSGTDFTLTISSLEPEDFAVYYCQQYYNWPPAFGGGTKVEIK
notes: as for B1
